Experimental data reported in US20220062341A1 (KIRIN, published 2022).

B1: modified TCR consisting of β2 and α6 (TCR)
TCR alpha: KSNSAVAWSNKSDFACANAFNNSIIPEDTFFPSPESSCDVKLVEKSFETDTNLNFQNLSVIGFRILLLKVAGFNLLMTLRLWSS
TCR beta: ATLVCLATGFYPDHVELSWWVNGKEVHSGVSTDPQPLKEQPALNDSRYCLSSRLRVSATFWQNPRNHFRCQVQFYGLSENDEWTQDRAKPVTQIVSAEAWGRADCGFTSESYQQGVLSATILYEILLGKATLYAVLVSALVLMAMVKRKDSRG
B2: modified TCR consisting of β2 and α7 (TCR)
TCR alpha: SNKSDFACANAFNNSIIPEDTFFPSPESSCDVKLVEKSFETDTNLNFQNLSVIGFRILLLKVAGFNLLMTLRLWSS
TCR beta: B1 TCR beta
B3: modified TCR consisting of β2 and α8 (TCR)
TCR alpha: CANAFNNSIIPEDTFFPSPESSCDVKLVEKSFETDTNLNFQNLSVIGFRILLLKVAGFNLLMTLRLWSS
TCR beta: B1 TCR beta
B4: modified TCR consisting of β2 and α9 (TCR)
TCR alpha: FNNSIIPEDTFFPSPESSCDVKLVEKSFETDTNLNFQNLSVIGFRILLLKVAGFNLLMTLRLWSS
TCR beta: B1 TCR beta
B5: modified TCR consisting of β2 and α10 (TCR)
TCR alpha: IPEDTFFPSPESSCDVKLVEKSFETDTNLNFQNLSVIGFRILLLKVAGFNLLMTLRLWSS
TCR beta: B1 TCR beta
B6: modified TCR consisting of β7 and α9 (TCR)
TCR alpha: B4 TCR alpha
TCR beta: RLRVSATFWQNPRNHFRCQVQFYGLSENDEWTQDRAKPVTQIVSAEAWGRADCGFTSESYQQGVLSATILYEILLGKATLYAVLVSALVLMAMVKRKDSRG
B7: modified TCR consisting of β7 and α10 (TCR)
TCR alpha: B5 TCR alpha
TCR beta: B6 TCR beta
B8: modified TCR consisting of β9 and α8 (TCR)
TCR alpha: B3 TCR alpha
TCR beta: FRCQVQFYGLSENDEWTQDRAKPVTQIVSAEAWGRADCGFTSESYQQGVLSATILYEILLGKATLYAVLVSALVLMAMVKRKDSRG
B9: modified TCR consisting of β9 and α9 (TCR)
TCR alpha: B4 TCR alpha
TCR beta: B8 TCR beta
B10: modified TCR consisting of β9 and α10 (TCR)
TCR alpha: B5 TCR alpha
TCR beta: B8 TCR beta
B11: modified TCR consisting of β10 and α3 (TCR)
TCR alpha: NVSQSKDSDVYITDKTVLDMRSMDFKSNSAVAWSNKSDFACANAFNNSIIPEDTFFPSPESSCDVKLVEKSFETDTNLNFQNLSVIGFRILLLKVAGFNLLMTLRLWSS
TCR beta: YGLSENDEWTQDRAKPVTQIVSAEAWGRADCGFTSESYQQGVLSATILYEILLGKATLYAVLVSALVLMAMVKRKDSRG
B12: modified TCR consisting of β10 and α4 (TCR)
TCR alpha: DVYITDKTVLDMRSMDFKSNSAVAWSNKSDFACANAFNNSIIPEDTFFPSPESSCDVKLVEKSFETDTNLNFQNLSVIGFRILLLKVAGFNLLMTLRLWSS
TCR beta: B11 TCR beta
B13: modified TCR consisting of β10 and α5 (TCR)
TCR alpha: LDMRSMDFKSNSAVAWSNKSDFACANAFNNSIIPEDTFFPSPESSCDVKLVEKSFETDTNLNFQNLSVIGFRILLLKVAGFNLLMTLRLWSS
TCR beta: B11 TCR beta
B14: modified TCR consisting of β10 and α6 (TCR)
TCR alpha: B1 TCR alpha
TCR beta: B11 TCR beta
B15: modified TCR consisting of β10 and α7 (TCR)
TCR alpha: B2 TCR alpha
TCR beta: B11 TCR beta
B16: modified TCR consisting of β10 and α8 (TCR)
TCR alpha: B3 TCR alpha
TCR beta: B11 TCR beta
B17: modified TCR consisting of β10 and α9 (TCR)
TCR alpha: B4 TCR alpha
TCR beta: B11 TCR beta
B18: modified TCR consisting of β10 and α10 (TCR)
TCR alpha: B5 TCR alpha
TCR beta: B11 TCR beta
B19: modified TCR consisting of β11 and α3 (TCR)
TCR alpha: B11 TCR alpha
TCR beta: EWTQDRAKPVTQIVSAEAWGRADCGFTSESYQQGVLSATILYEILLGKATLYAVLVSALVLMAMVKRKDSRG
B20: modified TCR consisting of β11 and α4 (TCR)
TCR alpha: B12 TCR alpha
TCR beta: B19 TCR beta
B21: modified TCR consisting of β11 and α5 (TCR)
TCR alpha: B13 TCR alpha
TCR beta: B19 TCR beta
B22: modified TCR consisting of β11 and α6 (TCR)
TCR alpha: B1 TCR alpha
TCR beta: B19 TCR beta
B23: modified TCR consisting of β11 and α7 (TCR)
TCR alpha: B2 TCR alpha
TCR beta: B19 TCR beta
B24: modified TCR consisting of β11 and α8 (TCR)
TCR alpha: B3 TCR alpha
TCR beta: B19 TCR beta
B25: modified TCR consisting of β11 and α9 (TCR)
TCR alpha: B4 TCR alpha
TCR beta: B19 TCR beta
B26: modified TCR consisting of β11 and α10 (TCR)
TCR alpha: B5 TCR alpha
TCR beta: B19 TCR beta
B27: modified TCR consisting of β12 and α3 (TCR)
TCR alpha: B11 TCR alpha
TCR beta: AKPVTQIVSAEAWGRADCGFTSESYQQGVLSATILYEILLGKATLYAVLVSALVLMAMVKRKDSRG
B28: modified TCR consisting of β12 and α4 (TCR)
TCR alpha: B12 TCR alpha
TCR beta: B27 TCR beta
B29: modified TCR consisting of β12 and α5 (TCR)
TCR alpha: B13 TCR alpha
TCR beta: B27 TCR beta
B30: modified TCR consisting of β12 and α6 (TCR)
TCR alpha: B1 TCR alpha
TCR beta: B27 TCR beta

molecular target: CD3 subunits (CD3E, CD3G, CD3D, CD3Z) (human, UniProt P07766 23-207; P09693 23-182; P04234 22-171; P20963 22-164); assay: cell-based or functional assay
Sequence (P07766 23-207, chain 1 of 4): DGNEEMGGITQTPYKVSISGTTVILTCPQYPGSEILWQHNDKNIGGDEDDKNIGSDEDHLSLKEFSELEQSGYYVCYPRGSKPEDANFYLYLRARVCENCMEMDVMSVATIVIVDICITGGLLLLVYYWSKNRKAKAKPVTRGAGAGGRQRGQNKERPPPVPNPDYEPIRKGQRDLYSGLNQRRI
Sequence (P09693 23-182, chain 2 of 4): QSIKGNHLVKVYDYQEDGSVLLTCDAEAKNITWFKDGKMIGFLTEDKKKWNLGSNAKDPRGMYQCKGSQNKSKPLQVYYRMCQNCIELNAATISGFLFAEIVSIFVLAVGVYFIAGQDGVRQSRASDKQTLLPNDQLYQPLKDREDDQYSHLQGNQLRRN
Sequence (P04234 22-171, chain 3 of 4): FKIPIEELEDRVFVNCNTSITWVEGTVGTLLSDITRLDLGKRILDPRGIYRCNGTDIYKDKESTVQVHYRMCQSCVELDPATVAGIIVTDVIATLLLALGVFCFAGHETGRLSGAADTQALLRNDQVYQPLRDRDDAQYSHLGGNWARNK
Sequence (P20963 22-164, chain 4 of 4): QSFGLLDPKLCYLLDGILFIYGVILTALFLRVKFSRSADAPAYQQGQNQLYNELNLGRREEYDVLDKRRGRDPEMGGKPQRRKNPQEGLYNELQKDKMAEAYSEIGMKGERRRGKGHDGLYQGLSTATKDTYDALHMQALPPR

Binder	CD3-recruiting activity (CD3-positive proportion, N=3), CD3-stably expressing 293T cells
B1	≥ 20%
B2	≥ 20%
B3	≥ 20%
B4	≥ 20%
B5	≥ 20%
B6	≥ 20%
B7	≥ 20%
B8	≥ 20%
B9	≥ 20%
B10	≥ 20%
B11	≥ 20%
B12	≥ 20%
B13	≥ 20%
B14	≥ 20%
B15	≥ 20%
B16	≥ 20%
B17	≥ 20%
B18	≥ 20%
B19	≥ 20%
B20	≥ 20%
B21	≥ 20%
B22	≥ 20%
B23	≥ 20%
B24	≥ 20%
B25	≥ 20%
B26	≥ 20%
B27	≥ 20%
B28	≥ 20%
B29	≥ 20%
B30	≥ 20%
